Measurements published in patent publication US20240156870A1 (NATIONAL RESEARCH COUNCIL OF CANADA, published 2024).

What was measured:
[1] = target: T1, human EGFR, native, on the cell surface (human, UniProt P00533 25-1210); experiment: Mirrorball microplate cytometry, adherent MDA-MB-468 cells
T1 construct: MCF7 is EGFR-low and serves as low-expression control; also called native cell-surface EGFR

[2] = target: T2, human EGFR-Fc fusion protein (human, UniProt P00533 25-645); experiment: SPR single-cycle, VHH over amine-coupled human EGFR-Fc
T2 construct: Bought; not shown: Fc part of the bought fusion

[3] = target: recombinant 6xHis-tagged human EGFR ectodomain (human) (UniProt P00533); experiment: SPR multi-cycle, VHH over amine-coupled EGFR ectodomain
[4] = target: recombinant human EGFRvIII ectodomain (human) (UniProt P00533); experiment: SPR multi-cycle, VHH over amine-coupled EGFRvIII ectodomain
[5] = target: T3, recombinant 6xHis-tagged human EGFR ectodomain (human, UniProt P00533 25-645); experiment: SPR multi-cycle, VHH over amine-coupled EGFR ectodomain
T3 construct: extracellular domain; Bought; also called recombinant human EGFR; EGFR extracellular domain; not shown: 6xHis tag

[6] = target: T3, recombinant 6xHis-tagged human EGFR …; experiment: SPR (value of Table 2 repeated in Table 6)
Procedure: In the first SPR experiment, multi-cycle kinetic analyses were performed on a Biacore™ 3000 instrument (GE Healthcare) at 25° C. in HBS-EP buffer [10 mM HEPES, pH 7.4, containing 150 mM NaCl, 3 mM EDTA and 0.005% (w/v) surfactant P20]. […] An ethanolamine-blocked flow cell served as the reference. Monomeric VHHs at concentrations ranging from 0.1 to 100 nM were injected over the EGFR and EGFRvIII surfaces in HBS-EP buffer at a flow rate of 20 μL/min. […] Contact times were 180-300 s and dissociation times were 300-600 s.

[7] = target: T1, human EGFR, native, on the cell surface; experiment: Mirrorball microplate cytometry, serial dilution, AF488 anti-human Fc; the cell line is not named in the legend of FIG. 5D (paragraph 463 treats it with the MDA-MB-468 assay of FIG. 5B)
[8] = target: T2, human EGFR-Fc fusion protein; experiment: SPR, VHH over human EGFR-Fc;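 note: Single-cycle kinetics on Biacore T200 at 25 °C in HBS-EP, monomeric VHHs at 0.6–50 nM flowed over immobilized EGFR, 180 s association, 600 s dissociation, ethanolamine-blocked reference cell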
Procedure: In the second SPR experiment, single-cycle kinetic analyses were performed on a Biacore™ T200 instrument (GE Healthcare) at 25° C. in HBS-EP buffer. […] An ethanolamine-blocked flow cell served as the reference. Monomeric VHHs at concentrations ranging from 0.6 to 50 nM were injected over the EGFR surfaces in HBS-EP buffer at a flow rate of 40 μL/min. The contact time was 180 s and the dissociation time was 600 s. The EGFR surfaces were regenerated using a 10 s pulse of 10 mM glycine, pH 1.5.

| Molecule | Kd [4] [nM] | kon [4] [M⁻¹ s⁻¹] | Kd [5] [nM] | koff [5] [s⁻¹] | kon [5] [M⁻¹ s⁻¹] | other results |
| --- | --- | --- | --- | --- | --- | --- |
| EG2-Fc (Fc fusion) | – | – | – | – | – | EC50 [1]: 279 nM |
| EG2 VHH | 14.6 | 1.2e+06 | – | – | – | Kd [2]: 11.1 nM; kon [2]: 850000 M⁻¹ s⁻¹; Kd [3]: 19.1 nM |
| NRC-sdAb027 (VHH, Monomeric llama VHH; also called EGFR7; not shown: C-terminal c-Myc and 6xHis tags) VHH: QVKLEESGGGLVQPGGSLKLSCAVSGFAFERNGVSWYRQAPGKQREFVAVISSGTTTYKDSVKGRFTISRDNTRNTAYLQMNNLKPEDTAVYYCNLIPPTPYWGQGTQVTVSS | 2.3 | 380000 | 1.6 | 0.00079 | 510000 | Kd [6]: 1.6 nM; koff [4]: 0.00086 s⁻¹ |
| NRC-sdAb032/NRC-sdAb022-Fc (Fc fusion, Member of the group m26; also called NRC-sdAb032/022-Fc; biparatopic heterodimeric VHH/VHH-Fc) chain 1: QVKLEESGGGLVQPGGSLRLSCSASGSISSISVMGWYRQAPGKQRELVARITSGGISNYVDSVKGRFTISGDSAKNIVYLQMNSLKPEDTAVYYCYMYVHVGYWVDYWGQGTQVTVSS chain 2: QVQLVESGGGLVQPGGSLKLSCAVSGFAFERNGVSWYRQAPGKQREFVAVISSGTTTYKDSVKGRFTISRDNTRNTAYLQMNNLKPEDTAVYYCNLVPPTPYWGQGTQVTVSS | – | – | – | – | – | EC50 [7]: 1.6 nM |
| NRC-sdAb022-Fc (Fc fusion, Bivalent VHH-human IgG1 Fc fusion from HEK293-6E cells; not shown: human IgG1 Fc) QVQLVESGGGLVQPGGSLKLSCAVSGFAFERNGVSWYRQAPGKQREFVAVISSGTTTYKDSVKGRFTISRDNTRNTAYLQMNNLKPEDTAVYYCNLVPPTPYWGQGTQVTVSS | – | – | – | – | – | EC50 [1]: 67 nM |
| NRC-sdAb023 (VHH, Monomeric llama VHH; also called EGFR3; not shown: C-terminal c-Myc and 6xHis tags) VHH: QVQLVESGGGLVQPGGSLRLSCTASGIIFSRNGVSWYRQAPGKEREFVAVITLSGTTTYKDSVKGRFTISRDNTRNTGYLQMNNLKPEDTAVYYCNLVPPTSYWGQGTQVTVSS | 19.4 | – | 12.6 | 0.0057 | 460000 | – |
| NRC-sdAb033-Fc (Fc fusion, Bivalent VHH-human IgG1 Fc fusion from HEK293-6E cells; not shown: human IgG1 Fc) QVQLVESGGGLVQPGGSLRLSCAASESIDSIYVMQWYRQAPEKPRDVVATLTPGGGSYYPEAVLGRFTISRDDAKNTVYLQMNSLKPEDTAVYYCNAFHRLRGTHYWGQGTQVTVSS | – | – | – | – | – | EC50 [1]: 49 nM |
| NRC-sdAb032-Fc (Fc fusion, Bivalent VHH-human IgG1 Fc fusion from HEK293-6E cells; also called homodimeric NRC-sdAb032-Fc; not shown: human IgG1 Fc) QVKLEESGGGLVQPGGSLRLSCSASGSISSISVMGWYRQAPGKQRELVARITSGGISNYVDSVKGRFTISGDSAKNIVYLQMNSLKPEDTAVYYCYMYVHVGYWVDYWGQGTQVTVSS | – | – | – | – | – | EC50 [1]: 0.5 nM; EC50 [7]: 0.9 nM |
| NRC-sdAb032/NRC-sdAb033-Fc (Fc fusion, Member of the group m26; also called NRC-sdAb032/033-Fc; biparatopic heterodimeric VHH/VHH-Fc) chain 1: QVKLEESGGGLVQPGGSLRLSCSASGSISSISVMGWYRQAPGKQRELVARITSGGISNYVDSVKGRFTISGDSAKNIVYLQMNSLKPEDTAVYYCYMYVHVGYWVDYWGQGTQVTVSS chain 2: QVQLVESGGGLVQPGGSLRLSCAASESIDSIYVMQWYRQAPEKPRDVVATLTPGGGSYYPEAVLGRFTISRDDAKNTVYLQMNSLKPEDTAVYYCNAFHRLRGTHYWGQGTQVTVSS | – | – | – | – | – | EC50 [7]: 1.8 nM |
| NRC-sdAb021 (VHH, Monomeric llama VHH purified from E. coli periplasm; also called EGFR1; not shown: C-terminal c-Myc and 6xHis tags) VHH: QVQLVESGGGLVQPGGSLRLSCSVSLSDFGSKHLAWHRQAPGKEREWVALIFSSGATNYANSVKGRFTISRDNSKNTVYLQMNSLKPEDTAVYYCNLVPPSPAWGQGTQVTVSS | 40.4 | 240000 | 38.5 | 0.012 | 310000 | Kd [6]: 38.5 nM; koff [4]: 0.0098 s⁻¹ |
| NRC-sdAb024 (VHH, Monomeric llama VHH; also called EGFR4; not shown: C-terminal c-Myc and 6xHis tags) VHH: QVQLVESGGGLVQPGGSLRLSCAASGSSLYINAMTWYRQAPGEQREFVAIISRGGDTKYSDSVKGRFSISIDNAKNTVYLQMNSLKAEDTAVYYCNAVPPFPNWGQGTQVTVSS | 4.9 | 180000 | 2.9 | 0.00073 | 250000 | koff [4]: 0.0009 s⁻¹ |
| NRC-sdAb025 (VHH, Monomeric llama VHH; also called EGFR5; not shown: C-terminal c-Myc and 6xHis tags) VHH: QVQLVESGGGLVQPGGSLRLSCAASGSSLTINAMTWYRQAPGDEREFVAIVYRGGGTKYADSVKGRFSISIDNAKNTVYLQMNSLKAEDTAVYYCNAVPPFPNWGQGTQVTVSS | 2.8 | 260000 | 1.7 | 0.00059 | 360000 | koff [4]: 0.00071 s⁻¹ |
| NRC-sdAb033-H2 (VHH, Humanized variant H2 of NRC-sdAb033) VHH: QVQLVESGGGVVQPGRSLRLSCAASESIDSIYVMQWYRQAPGKGLEVVATLTPGGGSYYPDSVKGRFTISRDNSKNTLYLQMNSLRAEDTAVYYCNAFHRLRGTHYWGQGTLVTVSS | – | – | – | – | – | Kd [8]: 1.4 nM; koff [8]: 0.00026 s⁻¹; kon [8]: 200000 M⁻¹ s⁻¹ |
| NRC-sdAb033-H1 (VHH, Humanized variant H1 of NRC-sdAb033) VHH: QVQLVESGGGVVQPGRSLRLSCAASESIDSIYVMQWYRQAPEKGLDVVATLTPGGGSYYPESVKGRFTISRDNSKNTLYLQMNSLRAEDTAVYYCNAFHRLRGTHYWGQGTLVTVSS | – | – | – | – | – | Kd [8]: 1.7 nM; koff [8]: 0.00022 s⁻¹; kon [8]: 130000 M⁻¹ s⁻¹ |
| NRC-sdAb028-H1 (VHH, Humanized variant H1 of NRC-sdAb028) VHH: QVQLVESGGGVVQPGRSLRLSCTVSGSFFSRDAMGWHRQAPGKGLEMVAGISSGGLSNHAESVKGRFTISRDNSKNTLYLQMNSLRAEDTAVYYCSIYEDGVWTSWGQGTLVTVSS | – | – | – | – | – | Kd [8]: 6.2 nM; koff [8]: 0.00058 s⁻¹; kon [8]: 93000 M⁻¹ s⁻¹ |
| NRC-sdAb032/NRC-sdAb028-Fc (Fc fusion, Member of the group m26; also called NRC-sdAb032/028-Fc; biparatopic heterodimeric VHH/VHH-Fc) chain 1: QVKLEESGGGLVQPGGSLRLSCSASGSISSISVMGWYRQAPGKQRELVARITSGGISNYVDSVKGRFTISGDSAKNIVYLQMNSLKPEDTAVYYCYMYVHVGYWVDYWGQGTQVTVSS chain 2: EVQLVESGGGLVQPGGSLRLSCTVSGSFFSRDAMGWHRQAPGKQREMVAGISSGGLSNHAESVKGRFTISRDNSKNTVYLQMNNLKPEDTAVYYCSIYEDGVWTSWGQGTQVTVSS | – | – | – | – | – | EC50 [7]: 2.1 nM |
| NRC-sdAb028-Fc (Fc fusion, Bivalent VHH-human IgG1 Fc fusion from HEK293-6E cells; not shown: human IgG1 Fc) EVQLVESGGGLVQPGGSLRLSCTVSGSFFSRDAMGWHRQAPGKQREMVAGISSGGLSNHAESVKGRFTISRDNSKNTVYLQMNNLKPEDTAVYYCSIYEDGVWTSWGQGTQVTVSS | – | – | – | – | – | EC50 [1]: 86 nM |
| NRC-sdAb026 (VHH, Monomeric llama VHH; also called EGFR6; not shown: C-terminal c-Myc and 6xHis tags) VHH: QVQLVESGGALVQPGGSLRLSCSASGVIFGINTLAWHRQAPGKEREWVALISNAGSTKYAGSVKGRFTISRDNDKNTVYLQMDSLKPEDTAVYYCNYVPPSPAWGQGTQVTVSS | 25 | 270000 | 15.4 | 0.0056 | 360000 | koff [4]: 0.0068 s⁻¹ |
| NRC-sdAb032-H1 (VHH, Humanized variant H1 of NRC-sdAb032) VHH: QVQLVESGGGLVQPGRSLRLSCSASGSISSISVMGWYRQAPGKGLELVARITSGGISNYVDSVKGRFTISRDSNSKNTLYLQMNSLRAEDTAVYYCYMYVHVGYWVDYWGQGTLVTVSS | – | – | – | – | – | Kd [8]: 16.6 nM; koff [8]: 0.01 s⁻¹; kon [8]: 620000 M⁻¹ s⁻¹ |
